T1: bS1c, chloroplast ribosomal protein S1 (spinach (Spinacia oleracea) (endogenous …, UniProt P29344 42-411))
T1 sequence (looked up): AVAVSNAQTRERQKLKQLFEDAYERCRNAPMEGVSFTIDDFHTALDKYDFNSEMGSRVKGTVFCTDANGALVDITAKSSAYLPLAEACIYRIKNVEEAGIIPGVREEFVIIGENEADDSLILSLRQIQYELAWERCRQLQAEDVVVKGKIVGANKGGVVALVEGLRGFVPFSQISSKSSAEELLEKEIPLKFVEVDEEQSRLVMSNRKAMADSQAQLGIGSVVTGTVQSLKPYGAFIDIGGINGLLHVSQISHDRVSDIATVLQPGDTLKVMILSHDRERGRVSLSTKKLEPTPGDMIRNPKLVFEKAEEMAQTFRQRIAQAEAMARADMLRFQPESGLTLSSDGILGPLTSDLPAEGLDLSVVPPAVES

T2: uS13c, chloroplast ribosomal protein S13 (spinach (Spinacia oleracea) (endogenous …, UniProt P82163 48-172))
T2 sequence (looked up): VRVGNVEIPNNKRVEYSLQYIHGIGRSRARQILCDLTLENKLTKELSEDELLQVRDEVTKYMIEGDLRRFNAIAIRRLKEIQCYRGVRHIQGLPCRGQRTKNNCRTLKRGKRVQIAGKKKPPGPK


What was measured:
[1] = target: T1, bS1c, chloroplast ribosomal protein S1; assay: cryo-EM structure
[2] = target: T2, uS13c, chloroplast ribosomal protein S13; assay: cryo-EM structure

| Binder | binding result [1] | binding result [2] |
| --- | --- | --- |
| uS2c, chloroplast ribosomal protein S2 (natural protein, UniProt P08242 1-236, looked up) MTRRYWNINLEEMMEAGVHFGHGTRKWNPRMSPYISAKCKGIHIINLTRTARFLSEACDLVFDASSRGKQFLIVGTKNKAADSVARAAIRARCHYVNKKWLGGMLTNWSTTETRLHKFRDLRMEQTAGRLARLPKRDAAVVKRQLSHLQTYLGGIKYMTGLPDIVIIVDQQEEYTALRECITLGIPTICLIDTNCNPDLADISIPANDDAIASIRLILTKLVFAICEGRSSYIRNP | binds |  |
| GRGDRKTAKGKRFNHSFGNARPKNKNKGRGPPKAPIFPKGDPSQKED (natural protein, UniProt P47910 55-101, looked up) [bTHXc (PSRP4), plastid-specific ribosomal protein of the chloroplast ribosome small subunit] |  | binds |

— PMC5737520 (Nucleic Acids Research, 2017)
